Among the data in PMC12720783 are stoichiometry N values, retold here.

By stoichiometry N is commonly meant a count of units in the complex or per binding partner.

This test deals with LcrG, full length (Yersinia pseudotuberculosis) (UniProt P69958). The experiment in a line: ITC.
Chain of LcrG, full length (Yersinia pseudotuberculosis) (P69958 whole entry): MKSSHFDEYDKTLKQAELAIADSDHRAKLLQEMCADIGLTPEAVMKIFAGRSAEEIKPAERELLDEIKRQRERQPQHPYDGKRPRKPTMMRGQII

Chain of LcrV, full length (P23994 whole entry): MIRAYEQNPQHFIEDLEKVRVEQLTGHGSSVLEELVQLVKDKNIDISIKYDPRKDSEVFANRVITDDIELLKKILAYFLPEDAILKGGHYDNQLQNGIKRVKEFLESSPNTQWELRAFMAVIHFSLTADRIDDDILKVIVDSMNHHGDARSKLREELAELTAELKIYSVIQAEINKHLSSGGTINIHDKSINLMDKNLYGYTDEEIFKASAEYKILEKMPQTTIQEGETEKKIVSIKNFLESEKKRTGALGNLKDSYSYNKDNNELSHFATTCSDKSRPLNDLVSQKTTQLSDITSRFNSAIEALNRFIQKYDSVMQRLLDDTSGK

“LcrV, full length (from UniProt P23994 1-326) (natural protein)” returned a stoichiometry N of 1.
